Results published in paper PMC10226595 (The Plant Cell, 2023).

B1: PHB-SDmut, YFP-tagged (PHB with mutated START domain) (natural protein)
chain: MMMVHSMSRDMMNRESPDKGLDSGKYVRYTPEQVEALERVYTECPKPSSLRRQQLIRECPILSNIEPKQIKVWFQNRRCREKQRKEAARLQTVNRKLNAMNKLLMEENDRLQKQVSNLVYENGHMKHQLHTASGTTTDNSCESVVVSGQQHQQQNPNPQHQQRDANNPAGLLSIAEEALAEFLSKATGTAVDWVQMIGMKPGPDSIGIVAISRNCSGIAARACGLVSLEPMKVAEILKDRPSWLRDCRSVDTLSVIPAGNGGTIELIYTQMYAPTTLAAAGAVVGAGYSTCLEDGSYVVCERSLTSATGGPTGPPSSNFVVAAGVPSGFLIRPCDGGGSILHIVDHVDLDAWSVPEVMRPLYESSKILAQKMTVAALRHVRQIAQETSGEVQYGGGRQPAVLRTFSQRLCRGFNDAVNGFVDDGWSPMGSDGAEDVTVMINLSPGKFGGSQYGNSFLPSFGSGVLCAKASMLLQNVPPAVLVRFLREHRSEWADYGVDAYAAASLRASPFAVPCARAGGFPSNQVILPLAQTVEHEESLEVVRLEGHAYSPEDMGLARDMYLLQLCSGVDENVVGGCAQLVFAPIDESFADDAPLLPSGFRIIPLEQKSTPNGASANRTLDLASALEGSTRQAGEADPNGCNFRSVLTIAFQFTFDNHSRDSVASMARQYVRSIVGSIQRVALAIAPRPGSNISPISVPTSPEALTLVRWISRSYSLHTGADLFGSDSQTSGDTLLHQLWNHSDAILCCSLKTNASPVFTFANQTGLDMLETTLVALQDIMLDKTLDEPGRKALCSEFPKIMQQGYAHLPAGVCASSMGRMVSYEQATVWKVLEDDESNHCLAFMFVNWSFV
B2: PHB-Delta, YFP-tagged (PHB with the START domain replaced by the 21-nt miR166 recognition site) (natural protein)
chain: MMMVHSMSRDMMNRESPDKGLDSGKYVRYTPEQVEALERVYTECPKPSSLRRQQLIRECPILSNIEPKQIKVWFQNRRCREKQRKEAARLQTVNRKLNAMNKLLMEENDRLQKQVSNLVYENGHMKHQLHTASGTTTDNSCESVVVSGQQHQQQNPNPQHQQRDAGMKPGPDVRQIAQETSGEVQYGGGRQPAVLRTFSQRLCRGFNDAVNGFVDDGWSPMGSDGAEDVTVMINLSPGKFGGSQYGNSFLPSFGSGVLCAKASMLLQNVPPAVLVRFLREHRSEWADYGVDAYAAASLRASPFAVPCARAGGFPSNQVILPLAQTVEHEESLEVVRLEGHAYSPEDMGLARDMYLLQLCSGVDENVVGGCAQLVFAPIDESFADDAPLLPSGFRIIPLEQKSTPNGASANRTLDLASALEGSTRQAGEADPNGCNFRSVLTIAFQFTFDNHSRDSVASMARQYVRSIVGSIQRVALAIAPRPGSNISPISVPTSPEALTLVRWISRSYSLHTGADLFGSDSQTSGDTLLHQLWNHSDAILCCSLKTNASPVFTFANQTGLDMLETTLVALQDIMLDKTLDEPGRKALCSEFPKIMQQGYAHLPAGVCASSMGRMVSYEQATVWKVLEDDESNHCLAFMFVNWSFV

Biological target: the molecule itself
Assay: single-molecule pull-down

| Protein | stoichiometry N |
| --- | --- |
| B1 | 2 |
| B2 | 2 |
